T1: recombinant mouse EGFL7 (mouse, UniProt Q9QXT5 22-275, limits assumed)
T1 construct: also called mEGFL7; poly-His-tagged EGFL7
T1 sequence (looked up): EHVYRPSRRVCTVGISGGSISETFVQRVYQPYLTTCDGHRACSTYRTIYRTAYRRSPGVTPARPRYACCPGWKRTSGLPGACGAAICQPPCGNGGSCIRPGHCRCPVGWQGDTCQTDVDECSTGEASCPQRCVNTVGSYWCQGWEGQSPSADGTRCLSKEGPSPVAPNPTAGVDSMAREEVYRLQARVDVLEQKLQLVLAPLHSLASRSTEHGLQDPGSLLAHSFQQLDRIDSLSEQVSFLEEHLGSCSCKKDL

T2: recombinant human EGFL7 (human, UniProt Q9UHF1 24-273, limits assumed)
T2 construct: Produced in E. coli and His6/poly-His-tagged; also called hEGFL7; poly-His-tagged EGFL7
T2 sequence (looked up): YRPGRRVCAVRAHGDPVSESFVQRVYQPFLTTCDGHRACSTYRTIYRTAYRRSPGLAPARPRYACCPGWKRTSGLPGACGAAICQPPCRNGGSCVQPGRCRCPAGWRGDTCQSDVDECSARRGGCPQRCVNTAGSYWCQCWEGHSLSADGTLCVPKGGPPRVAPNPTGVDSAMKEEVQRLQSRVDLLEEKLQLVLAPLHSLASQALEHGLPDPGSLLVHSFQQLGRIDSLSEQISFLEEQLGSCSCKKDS

B1: anti-EGFL7 mumab 4F11.1.8 (antibody, IgG2b, V domains shown)
VH: QIQLVQSGPELKKPGETVKISCKASGHTFTTYGMSWVKQAPGKGLKWMGWINTHSGVPTYADDFKGRFAFSLETSASTAHLQINNLKNEDTATYFCARLGSSAVDYWGQGTTVTVSS
VL: DIVLTQSPASLAVSLGQRATISCKASQSVDYDGDSYMSWYQQKPGQPPKLLIYGASNLESGIPARFSGSGSGTDFTLNIHPVEEEDAATYYCQQNNEDPYTFGGGTKVEIKR
notes: ATCC PTA-7343
B2: polypeptide p2 (peptide)
peptide: RPRYACCPGWKRT

Key:
recombinant mouse EGFL7 = target: T1, recombinant mouse EGFL7; assay: SPR, BIAcore 3000, room temperature; antibody on CM5 chip, poly-His-tagged EGFL7 injected; 1:1 global fit; Mab stock in 50 mM Tris/125 mM NaCl
Procedure: (§1) Binding affinity of the Mabs for both human and mouse EGFL7 was determined by surface plasmon resonance using Pharmacia BIAcore® 3000 (BIAcore AB, Uppsala, Sweden) at room temperature (see, e.g., Morton et al., Meth. Enzymol. 295:268-94 (1998)). Anti-EGFL7 antibodies were immobilized to the sensor chip (CM5) through primary amine groups. The carboxymethylated sensor chip surface matrix was activated by injecting 20 μl of a mixture of 0.025 M N-hydroxysuccinimide and 0.1 M N-ethyl-N′(dimethylaminopropyl) carbodiimide at 5 μl/min 5-10 μl of 10 μg/ml solution of […] in 10 mM sodium acetate, pH 4.5, were injected at 5 μl/min After coupling, unoccupied sites on the chip were blocked by injecting 20 μl of 1M ethanolamine, pH 8.5. The running buffer was PBS containing 0.05% polysorbate 20. For kinetic measurements, two-fold serial dilutions of poly-His-tagged EGFL7 in running buffer were injected over the flow cells for 3 minutes at a flow rate of 30 μl/min and the bound polyhis tagged EGFL7 was allow to dissociate for 20 minutes. The binding surface was regenerated by injecting 20 μl of 10 mM glycine.HCl (pH 1.5). […] There was no significant non-specific binding of poly-His-tagged EGFL7 to flow cell one. For calculating apparent binding affinity, data were analyzed using a 1:1 binding model using global fitting. […]

recombinant human EGFL7 = target: T2, recombinant human EGFL7; assay: as above
Procedure: as §1

[1] = target: B1; assay: peptide competition at 10-fold molar excess with EGFL7 protein; immunoprecipitation and SDS-PAGE

| Kd (recombinant mouse EGFL7) [pM] | Kd (recombinant human EGFL7) [pM] | binding result [1] | Binder |
| --- | --- | --- | --- |
| 756 | 473 |  | B1 |
|  |  | binds | B2 |

Source: patent US20100203041A1 (Genentech, published 2010)
